Biological target: T1, AfArsR C102S (Acidithiobacillus ferrooxidans, UniProt B7J952 B7J952:1-118, C102S)
T1 sequence: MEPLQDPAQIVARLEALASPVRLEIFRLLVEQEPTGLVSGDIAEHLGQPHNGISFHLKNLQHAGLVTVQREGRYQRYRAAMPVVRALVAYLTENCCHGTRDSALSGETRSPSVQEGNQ
Assay: FP; anisotropy; complex little affected by As(III) up to 40 uM, dissociated by MAs(III), Rox(III), PhAs(III); same buffer
Details: tags: C-terminal His tag (pBADarsR, E. coli Top10); chain copies: 2 (homodimer, inferred); label: 5'-6-FAM

B1: ars operator/promoter 30-mer (arsO) (dsDNA)
DNA 1: ATCCACGAATATTTCTTGCAGTATTGACAA
DNA 2: TTGTCAATACTGCAAGAAATATTCGTGGAT
Question: Does B1 bind?
Answer: binds
